Measured values reported in US20150017154A1 (NEXVET AUSTRALIA, published 2015).

Columns and labels:
[1] = target: NGF (species not stated, TF-1 cell proliferation assay); test: cell-based or functional assay
[2] = target: T1, mouse NGF (mouse, UniProt P01139 122-241, limits assumed); test: binding ELISA to mouse NGF, CHO supernatant dilutions
T1 construct: Coated on ELISA plates; also called murine NGF

[3] = target: T2, complement C1q (from human serum) (human, UniProt P02745 23-245; P02746 28-253; P02747 29-245); test: C1q ELISA: antibody captured on NGF-coated plate, human serum, anti-C1q-HRP
T2 construct: Native C1q in human serum diluted 1/100

[4] = target: T1, mouse NGF; test: binding ELISA to mouse NGF, CHO supernatants undiluted and 1/100
Method: A comparison of the binding of N-glycosylated and aglycosylated variants of anti-canine-NGF monoclonal antibodies to NGF with HCB and HCC heavy chain isotypes was carried out. Expression vectors encoding the light and heavy chain pairs described by SEQ ID NO:5 and SEQ ID NO:7 (HCB), SEQ ID NO:5 and SEQ ID NO:16 (HCB*), SEQ ID NO:5 and SEQ ID NO:8 (HCC), or SEQ ID NO:5 and SEQ ID NO:17 (HCC*) were co-transfected into CHO cells and the supernatants compared by binding ELISA to mouse NGF.

[5] = target: T2, complement C1q (from human serum); test: C1q ELISA: antibody captured on mouse NGF-coated plate, human serum, anti-C1q-HRP
Method: CHO cell transfectant supernatants from Example 2 were incubated with plates coated with […] NGF to capture the antibodies. The plates were washed and then incubated with human serum and bound complement C1q was measured by binding of anti-human C1q polyclonal antibody HRP and developed as above.
Plates were coated with 100 μl/well of 5 μg/ml mouse NGF and blocked with 5% BSA/PBS. Coated wells were incubated for 1 hour at room temperature with cell culture supernatants, containing recombinant caninised anti-NGF IgG, diluted in PBS/1% BSA (100 μl/well). The plates were washed and incubated for 1 hour at room temperature with 100 μl/well of human serum diluted 1/100 in veronal buffered saline containing 0.5 mM MgCl₂, 2 mM CaCl₂, 0.05% Tween-20, 0.1% gelatin and 0.5% BSA. After washing, plates were incubated with 100 μl of a 1/800 dilution of sheep anti-C1q-HRP (Serotec) in PBS/1% BSA. After washing, plates were developed by the addition of 100 μl TMB substrate (Thermo Scientific). Development was stopped by the addition of 100 μl of 2N H₂SO₄ and absorbance read at 450 nm.

T1 sequence (P01139 122-241 limits assumed): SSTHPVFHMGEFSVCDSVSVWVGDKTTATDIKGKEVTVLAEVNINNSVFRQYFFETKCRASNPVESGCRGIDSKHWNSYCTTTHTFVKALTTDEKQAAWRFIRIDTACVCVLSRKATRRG
T2 sequence (P02745 23-245 limits assumed, chain 1 of 3): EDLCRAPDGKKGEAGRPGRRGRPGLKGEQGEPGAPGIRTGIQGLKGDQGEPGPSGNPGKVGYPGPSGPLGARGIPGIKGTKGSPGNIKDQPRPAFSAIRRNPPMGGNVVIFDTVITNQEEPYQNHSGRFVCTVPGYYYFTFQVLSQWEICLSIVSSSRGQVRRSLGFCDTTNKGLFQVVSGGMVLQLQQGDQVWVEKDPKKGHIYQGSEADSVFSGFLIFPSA
T2 sequence (P02746 28-253 limits assumed, chain 2 of 3): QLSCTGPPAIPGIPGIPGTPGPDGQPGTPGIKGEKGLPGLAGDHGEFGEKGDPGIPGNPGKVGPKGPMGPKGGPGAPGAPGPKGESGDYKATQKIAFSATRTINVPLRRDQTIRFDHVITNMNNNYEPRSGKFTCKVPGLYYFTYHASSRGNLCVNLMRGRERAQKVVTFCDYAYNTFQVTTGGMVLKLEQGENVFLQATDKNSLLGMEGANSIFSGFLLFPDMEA
T2 sequence (P02747 29-245 limits assumed, chain 3 of 3): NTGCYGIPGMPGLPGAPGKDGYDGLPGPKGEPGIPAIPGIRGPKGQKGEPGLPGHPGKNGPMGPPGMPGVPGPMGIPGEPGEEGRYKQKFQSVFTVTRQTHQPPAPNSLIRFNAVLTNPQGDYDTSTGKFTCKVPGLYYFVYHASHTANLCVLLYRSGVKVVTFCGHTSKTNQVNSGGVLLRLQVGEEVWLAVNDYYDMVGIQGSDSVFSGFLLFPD

| Binder | IC50 in the TF-1 NGF neutralisation assay [1] | binding result [2] | binding result [3] | binding result [4] | binding result [5] |
| --- | --- | --- | --- | --- | --- |
| variant caninised anti-NGF antibody (caN2) with light chain SEQ ID NO:10 (VL2 and canine kappa constant domain) and heavy chain SEQ ID NO:11 (HCA variant-VH2 … (antibody, also called anti-canine NGF monoclonal antibody (canine HCA type heavy chain)) heavy: EVQLVESGGDLVNPGGTLTLSCVVSGFSLTNNNVNWVRQALGRGLEWVGGVWAGGATDYNSALKSRLTITRDTSKSTVFLQMHSLRSEDTATYYCARDGGYSSSTLYAMDAWGQGTLVTVSSASTTAPSVFPLAPSCGSTSGSTVALACLVSGYFPEPVTVSWNSGSLTSGVHTFPSVLQSSGLHSLSSMVTVPSSRWPSETFTCNVVHPASNTKVDKPVFNECRCTDTPPCPVPEPLGGPSVLIFPPKPKDILRITRTPEVTCVVLDLGREDPEVQISWFVDGKEVHTAKTQSREQQFNGTYRVVSVLPIEHQDWLTGKEFKCRVNHIDLPSPIERTISKARGRAHKPSVYVLPPSPKELSSSDTVSITCLIKDFYPPDIDVEWQSNGQQEPERKHRMTPPQLDEDGSYFLYSKLSVDKSRWQQGDPFTCAVMHETLQNHYTDLSLSHSPGK light: DIVMTQSPASLSLSQEEKVTITCRASEDIYNALAWYQQKPGQAPKLLIYNTDTLHTGVPSRFSGSGSGTEFSLTISSLEPEDVAVYYCQHYFHYPRTFGAGTKVELKRNDAQPAVYLFQPSPDQLHTGSASVVCLLNSFYPKDINVKWKVDGVIQDTGIQESVTEQDKDSTYSLSSTLTMSSTEYLSHELYSCEITHKSLPSTLIKSFQRSECQRVD | 0.013 nM | binds | no binding (tested: 4, 2 and 1 ug/ml) |  |  |
| caninised anti-NGF antibody comprising the caN-HCC heavy chain and a caN-kLC light chain (antibody, Tested as CHO cell transfectant supernatant; also called C-HCC; caN-HCC+caN-kLC1) heavy: EVQLVESGGDLVNPGGTLTLSCVVSGFSLTNNNVNWVRQALGRGLEWVGGVWAGGATDYNSALKSRLTITRDTSKSTVFLKMHSLQSEDTATYYCARDGGYSSSTLYAMDAWGQGTLVTVSSASTTAPSVFPLAPSCGSQSGSTVALACLVSGYIPEPVTVSWNSVSLTSGVHTFPSVLQSSGLYSLSSMVTVPSSRWPSETFTCNVAHPATNTKVDKPVAKECECKCNCNNCPCPGCGLLGGPSVFIFPPKPKDILVTARTPTVTCVVVDLDPENPEVQISWFVDSKQVQTANTQPREEQSNGTYRVVSVLPIGHQDWLSGKQFKCKVNNKALPSPIEEIISKTPGQAHQPNVYVLPPSRDEMSKNTVTLTCLVKDFFPPEIDVEWQSNGQQEPESKYRMTPPQLDEDGSYFLYSKLSVDKSRWQRGDTFICAVMHEALHNHYTQISLSHSPGK light: DIQMTQSPASLSLSQEEKVTITCRASEDIYNALAWYQQKPGQAPKLLIYNTDTLHTGVPSRFSGSGSGTEYSLTINSLESEDVAVYFCQHYFHYPRTFGAGTKVELKRNDAQPAVYLFQPSPDQLHTGSASVVCLLNSFYPKDINVKWKVDGVIQDTGIQESVTEQDKDSTYSLSSTLTMSSTEYLSHELYSCEITHKSLPSTLIKSFQRSECQRVD |  |  |  | binds | binds |
| caninised anti-NGF antibody comprising the caN-HCB heavy chain and the caN-kLC light chain (antibody, Tested as CHO cell transfectant supernatant; also called caN-HCB+caN-kLC1) heavy: EVQLVESGGDLVNPGGTLTLSCVVSGFSLTNNNVNWVRQALGRGLEWVGGVWAGGATDYNSALKSRLTITRDTSKSTVFLKMHSLQSEDTATYYCARDGGYSSSTLYAMDAWGQGTLVTVSSASTTAPSVFPLAPSCGSTSGSTVALACLVSGYFPEPVTVSWNSGSLTSGVHTFPSVLQSSGLYSLSSMVTVPSSRWPSETFTCNVAHPASKTKVDKPVPKRENGRVPRPPDCPKCPAPEMLGGPSVFIFPPKPKDTLLIARTPEVTCVVVDLDPEDPEVQISWFVDGKQMQTAKTQPREEQFNGTYRVVSVLPIGHQDWLKGKQFTCKVNNKALPSPIERTISKARGQAHQPSVYVLPPSREELSKNTVSLTCLIKDFYPPDIDVEWQSNGQQEPESKYRTTPPQLDEDGSYFLYSKLSVDKSRWQRGDTFICAVMHEALHNHYTQESLSHSPGK light: DIQMTQSPASLSLSQEEKVTITCRASEDIYNALAWYQQKPGQAPKLLIYNTDTLHTGVPSRFSGSGSGTEYSLTINSLESEDVAVYFCQHYFHYPRTFGAGTKVELKRNDAQPAVYLFQPSPDQLHTGSASVVCLLNSFYPKDINVKWKVDGVIQDTGIQESVTEQDKDSTYSLSSTLTMSSTEYLSHELYSCEITHKSLPSTLIKSFQRSECQRVD |  | binds |  |  | binds |
| caninised anti-NGF antibody comprising the caN-HCD heavy chain and caN-kLC light chain (antibody, also called D-HCD; caninised HCD type antibody) heavy: EVQLVESGGDLVNPGGTLTLSCVVSGFSLTNNNVNWVRQALGRGLEWVGGVWAGGATDYNSALKSRLTITRDTSKSTVFLKMHSLQSEDTATYYCARDGGYSSSTLYAMDAWGQGTLVTVSSASTTAPSVFPLAPSCGSTSGSTVALACLVSGYFPEPVTVSWNSGSLTSGVHTFPSVLQSSGLYSLSSTVTVPSSRWPSETFTCNVVHPASNTKVDKPVPKESTCKCISPCPVPESLGGPSVFIFPPKPKDILRITRTPEITCVVLDLGREDPEVQISWFVDGKEVHTAKTQPREQQFNSTYRVVSVLPIEHQDWLTGKEFKCRVNHIGLPSPIERTISKARGQAHQPSVYVLPPSPKELSSSDTVTLTCLIKDFYPPEIDVEWQSNGQPEPESKYHTTAPQLDEDGSYFLYSKLSVDKSRWQQGDTFTCAVMHEALQNHYTDLSLSHSPGK light: DIQMTQSPASLSLSQEEKVTITCRASEDIYNALAWYQQKPGQAPKLLIYNTDTLHTGVPSRFSGSGSGTEYSLTINSLESEDVAVYFCQHYFHYPRTFGAGTKVELKRNDAQPAVYLFQPSPDQLHTGSASVVCLLNSFYPKDINVKWKVDGVIQDTGIQESVTEQDKDSTYSLSSTLTMSSTEYLSHELYSCEITHKSLPSTLIKSFQRSECQRVD |  |  |  |  | no binding |
| aglycosylated variant anti-canine-NGF monoclonal antibody HCC* (SEQ ID NO:5 and SEQ ID NO:17) (antibody, Tested as CHO cell transfectant supernatant) heavy: EVQLVESGGDLVNPGGTLTLSCVVSGFSLTNNNVNWVRQALGRGLEWVGGVWAGGATDYNSALKSRLTITRDTSKSTVFLKMHSLQSEDTATYYCARDGGYSSSTLYAMDAWGQGTLVTVSSASTTAPSVFPLAPSCGSQSGSTVALACLVSGYIPEPVTVSWNSVSLTSGVHTFPSVLQSSGLYSLSSMVTVPSSRWPSETFTCNVAHPATNTKVDKPVAKECECKCNCNNCPCPGCGLLGGPSVFIFPPKPKDILVTARTPTVTCVVVDLDPENPEVQISWFVDSKQVQTANTQPREEQSAGTYRVVSVLPIGHQDWLSGKQFKCKVNNKALPSPIEEIISKTPGQAHQPNVYVLPPSRDEMSKNTVTLTCLVKDFFPPEIDVEWQSNGQQEPESKYRMTPPQLDEDGSYFLYSKLSVDKSRWQRGDTFICAVMHEALHNHYTQISLSHSPGK light: DIQMTQSPASLSLSQEEKVTITCRASEDIYNALAWYQQKPGQAPKLLIYNTDTLHTGVPSRFSGSGSGTEYSLTINSLESEDVAVYFCQHYFHYPRTFGAGTKVELKRNDAQPAVYLFQPSPDQLHTGSASVVCLLNSFYPKDINVKWKVDGVIQDTGIQESVTEQDKDSTYSLSSTLTMSSTEYLSHELYSCEITHKSLPSTLIKSFQRSECQRVD |  |  | binds | binds |  |
| aglycosylated variant anti-canine-NGF monoclonal antibody HCB* (SEQ ID NO:5 and SEQ ID NO:16) (antibody, Tested as CHO cell transfectant supernatant) heavy: EVQLVESGGDLVNPGGTLTLSCVVSGFSLTNNNVNWVRQALGRGLEWVGGVWAGGATDYNSALKSRLTITRDTSKSTVFLKMHSLQSEDTATYYCARDGGYSSSTLYAMDAWGQGTLVTVSSASTTAPSVFPLAPSCGSTSGSTVALACLVSGYFPEPVTVSWNSGSLTSGVHTFPSVLQSSGLYSLSSMVTVPSSRWPSETFTCNVAHPASKTKVDKPVPKRENGRVPRPPDCPKCPAPEMLGGPSVFIFPPKPKDTLLIARTPEVTCVVVDLDPEDPEVQISWFVDGKQMQTAKTQPREEQFAGTYRVVSVLPIGHQDWLKGKQFTCKVNNKALPSPIERTISKARGQAHQPSVYVLPPSREELSKNTVSLTCLIKDFYPPDIDVEWQSNGQQEPESKYRTTPPQLDEDGSYFLYSKLSVDKSRWQRGDTFICAVMHEALHNHYTQESLSHSPGK light: DIQMTQSPASLSLSQEEKVTITCRASEDIYNALAWYQQKPGQAPKLLIYNTDTLHTGVPSRFSGSGSGTEYSLTINSLESEDVAVYFCQHYFHYPRTFGAGTKVELKRNDAQPAVYLFQPSPDQLHTGSASVVCLLNSFYPKDINVKWKVDGVIQDTGIQESVTEQDKDSTYSLSSTLTMSSTEYLSHELYSCEITHKSLPSTLIKSFQRSECQRVD |  |  | no binding | binds |  |
